Here are results for six molecules from paper PMC3176292, “Mutations in Protein-Binding Hot-Spots on the Hub Protein Smad3 Differentially Affect Its Protein Interactions and Smad3-Regulated Gene Expression” (PLoS ONE, 2011).

Substitutions are numbered along the chain they refer to.

B1: Renilla luciferase-Smad3 V224A (natural protein, UniProt P84022 1-425, looked up)
chain: MSSILPFTPPIVKRLLGWKKGEQNGQEEKWCEKAVKSLVKKLKKTGQLDELEKAITTQNVNTKCITIPRSLDGRLQVSHRKGLPHVIYCRLWRWPDLHSHHELRAMELCEFAFNMKKDEVCVNPYHYQRVETPVLPPVLVPRHTEIPAEFPPLDDYSHSIPENTNFPAGIEPQSNIPETPPPGYLSEDGETSDHQMNHSMDAGSPNLSPNPMSPAHNNLDLQPATYCEPAFWCSISYYELNQRVGETFHASQPSMTVDGFTDPSNSERFCLGLLSNVNRNAAVELTRRHIGRGVRLYYIGGEVFAECLSDSAIFVQSPNCNQRYGWHPATVCKIPPGCNLKIFNNQEFAALLAQSVNQGFEAVYQLTRMCTIRMSFVKGWGAEYRRQTVTSTPCWIELHLNGPLQWLDKVLTQMGSPSIRCSSVS
notes: Smad3; source: HEK-293, transfected together with constitutively active Alk5, in lysate
B2: Renilla luciferase-Smad3 Y226A (natural protein, UniProt P84022 1-425, looked up)
chain: B1 chain with A224V, Y226A
notes: as for B1
B3: Renilla luciferase-Smad3 W406A (natural protein, UniProt P84022 1-425, looked up)
chain: B1 chain with A224V, W406A
notes: as for B1
B4: Renilla luciferase-Smad3 W326A (natural protein, UniProt P84022 1-425, looked up)
chain: B1 chain with A224V, W326A
notes: as for B1
B5: Renilla luciferase-Smad3 V356R (natural protein, UniProt P84022 1-425, looked up)
chain: B1 chain with A224V, V356R
notes: as for B1
B6: Renilla luciferase-Smad3 Y298A (natural protein, UniProt P84022 1-425, looked up)
chain: B1 chain with A224V, Y298A
notes: as for B1

For the first assay, the target named is T1, Flag-Smad3, full length (UniProt P84022 1-425).
T1 construct: Smad3; plasmid pCMV5-Flag-Smad3 (from J. Massagué); bait for Smad3-Smad3 association; also called Smad3 FL; source: HEK-293, transfected together with constitutively active Alk5, in lysate
The experiment in a line: co-IP; LUMIER: Renilla luciferase-Smad3 and Flag-tagged partner co-expressed with constitutively active Alk5 in HEK-293; Flag protein captured from cleared lysate (TNE: 10 mM Tris-HCl pH 7.8, 150 mM NaCl, 1 mM EDTA, 1% Igepal CA-630) on anti-Flag 96-well plates, 2 h at 4 °C; co-precipitated Renilla luciferase activity, TrxGA background subtracted, percent of wild-type Smad3. To be noted: partners not purified.
On to B1, for which the “percent binding relative to wild-type Smad3” value was 118%.
Still for that read-out and setting: in the case of B2 it was 161%.
The same measure, in the same setting: in the case of B3 it was 564%.
With B4, the “percent binding relative to wild-type Smad3” value amounted to 159%.
On to B5, for which the “percent binding relative to wild-type Smad3” value came to 275%.
Still for that read-out and setting: as for B6, the figure is 113%.

For the next assay, the target named is T2, Flag-SkiW274E, full length (UniProt P12755 1-728, W274E).
T2 construct: plasmid pCMV5b-Flag-SkiW274E (from K. Luo); also called SkiW274E FL; SKI274E; source: HEK-293, transfected, in lysate
T2 sequence (looked up): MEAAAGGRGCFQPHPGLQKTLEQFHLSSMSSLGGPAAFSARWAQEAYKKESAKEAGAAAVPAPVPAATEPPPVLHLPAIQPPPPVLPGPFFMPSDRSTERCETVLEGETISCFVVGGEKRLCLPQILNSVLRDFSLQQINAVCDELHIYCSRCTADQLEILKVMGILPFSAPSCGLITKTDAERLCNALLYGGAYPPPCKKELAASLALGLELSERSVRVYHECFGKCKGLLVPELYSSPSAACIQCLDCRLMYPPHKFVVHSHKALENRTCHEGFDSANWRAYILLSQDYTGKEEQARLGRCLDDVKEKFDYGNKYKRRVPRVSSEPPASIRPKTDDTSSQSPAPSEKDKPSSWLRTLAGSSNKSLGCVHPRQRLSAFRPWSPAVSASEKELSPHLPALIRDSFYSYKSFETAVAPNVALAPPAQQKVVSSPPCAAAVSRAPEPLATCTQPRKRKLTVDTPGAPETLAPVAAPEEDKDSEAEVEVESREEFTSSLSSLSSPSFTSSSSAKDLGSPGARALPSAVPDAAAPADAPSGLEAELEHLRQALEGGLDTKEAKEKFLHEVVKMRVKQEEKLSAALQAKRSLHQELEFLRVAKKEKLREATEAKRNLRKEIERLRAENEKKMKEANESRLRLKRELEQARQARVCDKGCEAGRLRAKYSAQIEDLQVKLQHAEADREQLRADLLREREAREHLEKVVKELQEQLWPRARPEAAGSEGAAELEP
The assay is described as above. To be noted: partners not purified.
Turning to B1, the “percent binding relative to wild-type Smad3” value stood at 212%.
The same measure, in the same setting: as for B2, the figure is 89%.
For B3, the “percent binding relative to wild-type Smad3” value was 21%.
The same measure, in the same setting: in the case of B4 it was 88%; in that of B5, 30%.
For the molecule B6, the “percent binding relative to wild-type Smad3” value amounted to 121%.

The target of another assay is T3, Smurf2 Smad-binding domain (amino acids 252–330) on the Flag-thioredoxin scaffold (UniProt Q9HAU4 252-330).
T3 construct: Smurf2, amino acids 252–330; also called Smurf2 aa252–330; TrxSmurf2; source: HEK-293, transfected, in lysate
T3 sequence (Q9HAU4 252-330): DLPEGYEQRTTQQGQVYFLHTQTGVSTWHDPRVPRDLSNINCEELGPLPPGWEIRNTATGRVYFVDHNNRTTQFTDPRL
The description is as above. To be noted: partners not purified.
As for B1, the “percent binding relative to wild-type Smad3” value worked out at 320%.
Still for that read-out and setting: as for B2, the figure is 365%.
In the case of B3, the “percent binding relative to wild-type Smad3” value was 1330%.
Still for that read-out and setting: in the case of B4 it was 653%; in that of B5, 468%.
On the same count and under the same terms, in the case of B6 it was 144%.
